Series [1] deals with T1, BsHfq-His (Bacillus subtilis, UniProt O31796 1-73).
T1 sequence: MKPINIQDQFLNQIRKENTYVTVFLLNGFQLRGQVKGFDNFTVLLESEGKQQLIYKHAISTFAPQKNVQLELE
Put plainly: UV cross-linking.

The target of another series is T2, BsHfq-His N40A (Bacillus subtilis, UniProt O31796 1-73, N40A).
T2 sequence: T1 sequence with N40A
Put plainly: EMSA. In general terms: In EMSA bound probe runs differently from free probe, usually more slowly.

In a further series the target is T3, BsHfq-His F41A (Bacillus subtilis, UniProt O31796 1-73, F41A).
T3 sequence: T1 sequence with F41A
Put plainly: EMSA.

A further series deals with T4, BsHfq-His R32A (Bacillus subtilis, UniProt O31796 1-73, R32A).
T4 sequence: T1 sequence with R32A
The series can be described thus: EMSA.

In a further series the target is T5, BsHfq-His F24A (Bacillus subtilis, UniProt O31796 1-73, F24A).
T5 sequence: T1 sequence with F24A
Put plainly: EMSA.

In a further series the target is T6, BsHfq-His F29A (Bacillus subtilis, UniProt O31796 1-73, F29A).
T6 sequence: T1 sequence with F29A
Put plainly: EMSA.

Another series addresses T7, BsHfq-His Q30A (Bacillus subtilis, UniProt O31796 1-73, Q30A).
T7 sequence: T1 sequence with Q30A
The series can be described thus: EMSA.

The target in series [2] is T1, BsHfq-His. The series can be described thus: UV cross-linking. This is another data set of the same source.
The series “SEC + other: SDS-PAGE” deals with the molecule itself. The series can be described thus: SEC + other: SDS-PAGE.
Another series concerns the target T8, BsHfq (GST removed) (Bacillus subtilis, UniProt O31796 1-73).
T8 sequence: T1 sequence
The series can be described thus: EMSA.

The target in series [3] is T1, BsHfq-His. The series can be described thus: EMSA.

Here are results for 13 molecules from article PMC3287200 (Nucleic Acids Research, 2011).

Residue numbers refer to the chain shown, from its start. Names may count otherwise.

B1: 49R (structured_RNA)
RNA: GGGCGAAUUCUAGAGAGAGAUUAGAUCCUGUCCGCGGCUAAAGCU
As to B1, the binding result with BsHfq-His [1] is reported as “binds”; with BsHfq-His N40A it was “binds”; in the series with BsHfq-His F41A, “binds”; with BsHfq-His R32A, “no binding”; with BsHfq-His F24A, “no binding”; with BsHfq-His F29A, “no binding”. In addition, the binding result with BsHfq-His Q30A was “no binding”.

B2: 49R-A (ssRNA)
RNA: B1 RNA with G17A
For B2, in the series with BsHfq-His [2], the binding result was “binds”.

B3: BsHfq-His H57A (natural protein, Bacillus subtilis)
chain: T1 sequence with H57A
Turning to B3, in “SEC + other: SDS-PAGE”, the “ability to form hexameric structure, percent of wild-type” value is ~30 % of wild-type.

B4: BsHfq-His K56A (natural protein, Bacillus subtilis)
chain: T1 sequence with K56A
Turning to B4, the “ability to form hexameric structure, percent of wild-type” value in the series “SEC + other: SDS-PAGE” was ~60 % of wild-type.

B5: BsHfq-His R32A (natural protein, Bacillus subtilis)
chain: T1 sequence with R32A
Consider B5, for which the “stoichiometry N” value in the series “SEC + other: SDS-PAGE” was found to be 6.

B6: BsHfq-His F41A (natural protein, Bacillus subtilis)
chain: T1 sequence with F41A
In the case of B6, the “stoichiometry N” value in the series “SEC + other: SDS-PAGE” was 6.

B7: C-terminal 6x His fusion BsHfq, wild type (natural protein, Bacillus subtilis)
chain: T1 sequence
B7: the “stoichiometry N” value in the series “SEC + other: SDS-PAGE” was 6.

B8: BsHfq-His F29A (natural protein, Bacillus subtilis)
chain: T1 sequence with F29A
Turning to B8, the “stoichiometry N” value in “SEC + other: SDS-PAGE” worked out at 6.

B9: BsHfq-His N40A (natural protein, Bacillus subtilis)
chain: T1 sequence with N40A
With B9, the “stoichiometry N” value in “SEC + other: SDS-PAGE” was determined as 6.

B10: BsHfq-His F24A (natural protein, Bacillus subtilis)
chain: T1 sequence with F24A
For the molecule B10, the “stoichiometry N” value in the series “SEC + other: SDS-PAGE” worked out at 6.

B11: BsHfq-His Q30A (natural protein, Bacillus subtilis)
chain: T1 sequence with Q30A
As to B11, the “stoichiometry N” value in “SEC + other: SDS-PAGE” was found to be 6.

B12: AU5G (ssRNA)
RNA: AUUUUUG
As for B12, in the series with BsHfq (GST removed), the binding result was “no binding”.

B13: 28f (ssRNA)
RNA: GGGACACAAUGGACGAGGGAUUUGGGUGAUAUUUUUAGUCGGUCAUAACGGCCGACAUGAGAG
In the case of B13, the binding result with BsHfq-His [3] is recorded as “no binding”.

In general, stoichiometry N refers to the number of molecules, sites or subunits per partner or assembly.
